Data on one protein can be found in US20210395716.

The data set deals with β-amyloid peptide (1-42), P05067.
β-amyloid peptide (1-42), P05067, sequence (P05067 whole entry, looked up, tested part not stated): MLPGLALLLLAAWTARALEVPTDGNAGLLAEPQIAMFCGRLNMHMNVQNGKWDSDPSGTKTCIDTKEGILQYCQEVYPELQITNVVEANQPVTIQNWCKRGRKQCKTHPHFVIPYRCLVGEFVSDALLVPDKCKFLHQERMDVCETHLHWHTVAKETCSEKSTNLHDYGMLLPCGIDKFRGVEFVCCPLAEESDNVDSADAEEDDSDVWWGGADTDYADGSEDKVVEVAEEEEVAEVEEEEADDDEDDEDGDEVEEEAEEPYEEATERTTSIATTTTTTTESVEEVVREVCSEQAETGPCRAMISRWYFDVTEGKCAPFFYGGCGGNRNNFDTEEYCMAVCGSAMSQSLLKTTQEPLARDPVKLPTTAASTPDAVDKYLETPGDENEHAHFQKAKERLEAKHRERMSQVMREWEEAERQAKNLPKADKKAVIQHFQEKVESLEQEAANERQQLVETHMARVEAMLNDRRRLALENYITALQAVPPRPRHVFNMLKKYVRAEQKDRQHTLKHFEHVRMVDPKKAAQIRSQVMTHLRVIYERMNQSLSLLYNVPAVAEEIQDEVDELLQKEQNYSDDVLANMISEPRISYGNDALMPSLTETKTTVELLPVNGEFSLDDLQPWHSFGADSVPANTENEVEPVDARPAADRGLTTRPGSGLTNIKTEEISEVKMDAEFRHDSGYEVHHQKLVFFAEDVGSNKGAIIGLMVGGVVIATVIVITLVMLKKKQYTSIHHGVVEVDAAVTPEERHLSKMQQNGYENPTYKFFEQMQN

B1: Fab-neprilysin (humanized 3E10 Fab fused through a Gly-Ser linker to the human neprilysin ectodomain) (protein)
chain 1: EVQLQESGGGVVQPGGSLRLSCAASGFTFSNYGMHWIRQAPGKGLEWVSYISSGSSTIYYADSVKGRFTISRDNSKNTLYLQMNSLRSEDTAVYYCARRGLLLDYWGQGTLVTVSSASTKGPSVFPLAPSSKSTSGGTAALGCLVKDYFPEPVTVSWNSGALTSGVHTFPAVLQSSGLYSLSSVVTVPSSSLGTQTYICNVNHKPSNTKVDKKVEPKSCDKTHTGGSGGGSGGGSGGYDDGICKSSDCIKSAARLIQNMDATTEPCTDFFKYACGGWLKRNVIPETSSRYGNFDILRDELEVVLKDVLQEPKTEDIVAVQKAKALYRSCINESAIDSRGGEPLLKLLPDIYGWPVATENWEQKYGASWTAEKAIAQLNSKYGKKVLINLFVGTDDKNSVNHVIHIDQPRLGLPSRDYYECTGIYKEACTAYVDFMISVARLIRQEERLPIDENQLALEMNKVMELEKEIANATAKPEDRNDPMLLYNKMTLAQIQNNFSLEINGKPFSWLNFTNEIMSTVNISITNEEDVVVYAPEYLTKLKPILTKYSARDLQNLMSWRFIMDLVSSLSRTYKESRNAFRKALYGTTSETATWRRCANYVNGNMENAVGRLYVEAAFAGESKHVVEDLIAQIREVFIQTLDDLTWMDAETKKRAEEKALAIKERIGYPDDIVSNDNKLNNEYLELNYKEDEYFENIIQNLKFSQSKQLKKLREKVDKDEWISGAAVVNAFYSSGRNQIVFPAGILQPPFFSAQQSNSLNYGGIGMVIGHEITHGFDDNGRNFNKDGDLVDWWTQQSASNFKEQSQCMVYQYGNFSWDLAGGQHLNGINTLGENIADNGGLGQAYRAYQNYIKKNGEEKLLPGLDLNHKQLFFLNFAQVWCGTYRPEYAVNSIKTDVHSPGNFRIIGTLQNSAEFSEAFHCRKNSYMNPEKKCRVW
chain 2: DIQMTQSPSSLSASVGDRVTISCRASKSVSTSSYSYMHWYQQKPEKAPKLLIKYASYLQSGVPSRFSGSGSGTDFTLTISSLQPEDVATYYCQHSREFPWTFGAGTKLELKRTVAAPSVFIFPPSDEQLKSGTASVVCLLNNFYPREAKVQWKVDNALQSGNSQESVTEQDSKDSTYSLSSTLTLSKADYEKHKVYACEVTHQGLSSPVTKSFNRGEC
For B1, the Abeta HPLC, per hr. (sample FabNEP 2.5) is 0.5 per hr; the Abeta HPLC, per hr. (sample FabNEP 3.6, pH 3.6 elution pool) worked out at 0.61 per hr; the Abeta HPLC, per hr. (sample FabNEP 4.0, pH 4.0 elution pool) was found to be 0.66 per hr; the Abeta HPLC, rate (sample FabNEP 2.5) (million sq unt/min) is 0.0104. The protein also registered an Abeta HPLC, rate (sample FabNEP 3.6, pH 3.6 elution pool) (million sq unt/min) of 0.0137; an Abeta HPLC, rate (sample FabNEP 4.0, pH 4.0 elution pool) (million sq unt/min) of 0.0175; an Abeta HPLC, units/µL (sample FabNEP 2.5) of 0.001 units/µL; an Abeta HPLC, units/µL (sample FabNEP 3.6, pH 3.6 elution pool) of 0.0547 units/µL. In addition, the Abeta HPLC, units/µL (sample FabNEP 4.0, pH 4.0 elution pool) came to 0.035 units/µL; the Abeta HPLC, units/µg (sample FabNEP 2.5) was determined as 0.008 units/µg; the Abeta HPLC, units/µg (sample FabNEP 3.6, pH 3.6 elution pool) amounted to 0.01 units/µg; the Abeta HPLC, units/µg (sample FabNEP 4.0, pH 4.0 elution pool) is 0.011 units/µg. The “degradation of β-amyloid (1-42)” value is “The Fab portion does not inhibit degradation of β-amyloid (1-42)” and the “degradation of β-amyloid peptide (1-42), HPLC” value is “Fab-NEP degrades β-amyloid peptide (1-42). The Fab conjugate does not appear to inhibit neprilysin activity, as compared to yeast NEP (yNEP)”.
